Key:
[1] = system: Nc1ncnc2c1ncn2[C@@H]1O[C@H](COP(=O)(O)OP(=O)(O)O)[C@@H](O)[C@H]1O; experiment: phosphotransferase activity, ATP by luciferin-luciferase; assay type: biochemical, Pseudomonas aeruginosa; details: polyP25 or polyP65 as phosphate donor, 5 mM Mg2+, Tris-HCl pH 8.0, 37°C, one rounded value for both variants and both polyP, data not shown
paPpx(1–506) = target: T1, paPpx(1–506) (Pseudomonas aeruginosa, UniProt Q9ZN70); details: 8 μM polyP65, 5 mM Mg2+, Tris-HCl pH 8.0, 37°C; nonessential activator, sigmoid curve
T1 construct: gene ppx
T1 sequence (Q9ZN70 whole entry): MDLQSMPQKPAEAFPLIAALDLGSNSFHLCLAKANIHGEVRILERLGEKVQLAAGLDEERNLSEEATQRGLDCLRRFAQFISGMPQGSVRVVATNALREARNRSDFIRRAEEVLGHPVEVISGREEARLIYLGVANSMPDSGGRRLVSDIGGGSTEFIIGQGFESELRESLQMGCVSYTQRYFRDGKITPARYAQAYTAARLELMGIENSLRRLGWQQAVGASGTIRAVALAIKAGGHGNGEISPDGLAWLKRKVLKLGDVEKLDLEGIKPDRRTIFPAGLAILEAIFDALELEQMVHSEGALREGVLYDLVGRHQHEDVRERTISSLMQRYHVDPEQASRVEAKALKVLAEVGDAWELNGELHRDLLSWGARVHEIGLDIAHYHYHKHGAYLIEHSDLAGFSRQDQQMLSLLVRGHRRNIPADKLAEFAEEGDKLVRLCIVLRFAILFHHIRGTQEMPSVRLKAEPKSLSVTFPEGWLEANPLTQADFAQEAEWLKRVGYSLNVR

Row | Compound | Km [1] | K 0.5(app)NH4^+ (paPpx(1–506))
1 | paPpx(1–506) (Pseudomonas aeruginosa PAO1) | 90 µM | 
2 | N [NH4^+] |  | 10 ± 0.4 mM
3 | N-paPpx(1–314) (Pseudomonas aeruginosa PAO1) | 90 µM | 

Source: publication PMC4631893, “Pseudomonas aeruginosa Exopolyphosphatase Is Also a Polyphosphate: ADP Phosphotransferase” (Enzyme Research, 2015)
